We go through two molecules from paper PMC11959277, “Trichocystatin-2 from Trichomonas vaginalis: role of N-terminal cysteines in aggregation, protease inhibition, and trichomonal cysteine protease-dependent cytotoxicity on HeLa cells” (Frontiers in Parasitology, 2025).

Data set [1] addresses recombinant TC-2Δ11 deletion mutant (rTC-2Δ11) (Trichomonas vaginalis) (UniProt A2FXT2). As to the kind of experiment: SEC; analytical SEC, Superdex 200 pg HiLoad 26/600, 5 mg protein loaded, 50 mM Tris-HCl pH 8.0, 100 mM NaCl, 0.02% NaN3, room temperature (23-25°C); samples stored 1 month at 4°C.
For data set [2] the target is unchanged. Kind of data set: SEC; analytical SEC, Superdex 200 pg HiLoad 26/600, 5 mg protein loaded, 50 mM Tris-HCl pH 8.0, 100 mM NaCl, 0.02% NaN3, room temperature (23-25°C); samples stored 3 months at 4°C.
For the next data set, the target named is A2FXT2. Kind of data set: SEC; analytical SEC, Superdex 200 pg HiLoad 26/600, 5 mg protein loaded, 50 mM Tris-HCl pH 8.0, 100 mM NaCl, 0.02% NaN3, room temperature (23-25°C); samples stored 1 month at 4°C.
Data set [3] concerns the molecule itself. Described as above.
Data set [4] deals with the molecule itself. Kind of data set: SEC; analytical SEC, Superdex 200 pg HiLoad 26/600, 5 mg protein loaded, 50 mM Tris-HCl pH 8.0, 100 mM NaCl, 0.02% NaN3, room temperature (23-25°C); samples stored 3 months at 4°C.

“And” between values parts separate entries of the source, which are not always exact repeats. Equal values may be shown once.

Regarding “recombinant TC-2Δ11 deletion mutant (rTC-2Δ11) (from UniProt A2FXT2 12-91) (domain or fragment)”, in data set [1], the Area (%) of the dimer peak came to 19.5% and the stoichiometry N amounted to 2. Besides, in data set [2], the Area (%) of the dimer peak came to 25.8% and the stoichiometry N was determined as 2.

B1: recombinant wild-type trichocystatin-2 (rTC-2) (natural protein)
chain: MSCGGGCCCGAAKPANVQDEHVIQAFKDAIALGNQKNGTTLEYIQLLSATQKVVSGYIFEGVVKTNDGDYKVKIWCKPGNTEKELQLFEKA
notes: trichocystatin-2 (TC-2), Trichomonas vaginalis, TrichDB TVAG_272260; 10-kDa cystatin of the stefin type; the TC-2 gene cloned in pCold I as in Puente-Rivera et al., 2014; No tag removal is described; Mixture of monomer, dimer and higher forms in SEC
In turn, B1 had an Area (%) of the peak of high molecular weight aggregates with A2FXT2 of 2.2%. The “stoichiometry N” value in data set [3] was 2; in data set [4], 2 and 4.
